Source: patent US20190144917

What was measured:
[1] = system: C1-NPs: fluorescein-conjugated MMP substrate peptide C1 (FAM-sk-PLGLEEA-GC) coupled to iron oxide nanoparticles
[2] = system: DMNPE-veiled C1-NPs (STREAMs)
[3] = system: S1: Biotin-CGPVGLIGK(Cy7)eGvndneeGffsar-NH2
[4] = system: S3: Biotin-CGPLGVRGKK(Cy7)eGvndneeGffsar-NH2
[5] = system: S2: Biotin-CGPVPLSLVMK(Cy7)eGvndneeGffsar-NH2
Chain of S2: Biotin-CGPVPLSLVMK(Cy7)eGvndneeGffsar-NH2 (chain, as listed by the source): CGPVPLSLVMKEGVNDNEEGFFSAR

Chain of recombinant MMP9 (chain, as listed by the source): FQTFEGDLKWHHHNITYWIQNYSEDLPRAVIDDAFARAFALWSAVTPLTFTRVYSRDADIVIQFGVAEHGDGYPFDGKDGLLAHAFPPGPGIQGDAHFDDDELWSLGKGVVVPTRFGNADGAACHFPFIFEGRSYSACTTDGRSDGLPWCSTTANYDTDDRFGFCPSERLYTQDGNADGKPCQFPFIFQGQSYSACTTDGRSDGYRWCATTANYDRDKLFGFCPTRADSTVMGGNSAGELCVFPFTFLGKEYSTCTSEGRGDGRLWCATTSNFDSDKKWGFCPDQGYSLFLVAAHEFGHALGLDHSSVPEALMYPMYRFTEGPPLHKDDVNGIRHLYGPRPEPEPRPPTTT
Chain of recombinant MMP2 (chain, as listed by the source): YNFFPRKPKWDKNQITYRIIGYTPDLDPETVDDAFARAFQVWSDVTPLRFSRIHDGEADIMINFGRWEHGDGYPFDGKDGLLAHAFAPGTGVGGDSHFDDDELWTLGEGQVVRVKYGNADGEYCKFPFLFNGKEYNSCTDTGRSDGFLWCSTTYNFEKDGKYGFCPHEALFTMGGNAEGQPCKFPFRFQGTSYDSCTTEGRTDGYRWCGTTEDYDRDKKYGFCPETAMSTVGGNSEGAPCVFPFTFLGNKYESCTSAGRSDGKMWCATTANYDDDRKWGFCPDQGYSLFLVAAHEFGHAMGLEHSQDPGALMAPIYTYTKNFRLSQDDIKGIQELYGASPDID
Chain of S3: Biotin-CGPLGVRGKK(Cy7)eGvndneeGffsar-NH2 (chain, as listed by the source): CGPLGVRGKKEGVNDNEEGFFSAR
Chain of S1: Biotin-CGPVGLIGK(Cy7)eGvndneeGffsar-NH2 (chain, as listed by the source): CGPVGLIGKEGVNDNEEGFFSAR
Chain of recombinant MMP19 (chain, as listed by the source): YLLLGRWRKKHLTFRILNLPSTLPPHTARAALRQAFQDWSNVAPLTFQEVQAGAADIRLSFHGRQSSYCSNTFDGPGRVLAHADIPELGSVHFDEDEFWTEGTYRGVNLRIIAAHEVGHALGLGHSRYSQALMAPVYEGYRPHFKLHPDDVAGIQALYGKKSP

| Substance | proteolysis (fluorescence dequenching) [1] | proteolysis (fluorescence dequenching) [2] | relative proteolysis (Cy7 signal after streptavidin depletion of uncleaved peptide) [3] | relative proteolysis (Cy7 signal after streptavidin depletion of uncleaved peptide) [4] | further results |
| --- | --- | --- | --- | --- | --- |
| recombinant MMP9 | significantly cleaved by MMP13, 7, 1, and 9 | marked reduction in proteolysis | responded primarily to MMP2 and MMP9 | responded primarily to MMP2 and MMP9 | catalytic efficiency (Michaelis-Menten fit) [1]: catalytic efficiencies>10^3 M^-1 s^-1 and 10^4 M^-1 s^-1, respectively |
| recombinant MMP2 |  |  | responded primarily to MMP2 and MMP9 | responded primarily to MMP2 and MMP9 |  |
| recombinant MMP19 |  |  |  |  | relative proteolysis (Cy7 signal after streptavidin depletion of uncleaved peptide) [5]: cleaved efficiently by MMP7 and MMP19 |
| recombinant thrombin |  |  |  |  | cleavage monitored by fluorescence release [2]: reduced cleavage of the substrate |
| recombinant MMP13 | significantly cleaved by MMP13, 7, 1, and 9 | marked reduction in proteolysis |  |  | fluorescence dequenching measurements of protease cleavage [1]: with MMP13 as the most efficient |
